The target in the assay is CaMKIV. The assay can be described thus: cell-based or functional assay.

Take YGRKKRRQRRRKRPPKLGQIGRSKRVVIEDDR (modifications not checked) [tatCN21]: the kinase activity in a kinase panel, 5 µM tatCN21, reduction came out at 35%.

Source of the values: US20120015885A1.
